First the molecules themselves.
B1: Biotinylated full length PcrA (Geobacillus stearothermophilus), wild type [modified: biotin; biotin] [Geobacillus stearothermophilus] / YvgS/HelD (SF1 helicase), Bacillus subtilis [B. subtilis 168 (endogenous in the cell … (parent)
chain 1: MNFLSEQLLAHLNKEQQEAVRTTEGPLLIMAGAGSGKTRVLTHRIAYLMAEKHVAPWNILAITFTNKAAREMRERVQSLLGGAAEDVWISTFHSMCVRILRRDIDRIGINRNFSILDPTDQLSVMKTILKEKNIDPKKFEPRTILGTISAAKNELLPPEQFAKRASTYYEKVVSDVYQEYQQRLLRNHSLDFDDLIMTTIQLFDRVPDVLHYYQYKFQYIHIDEYQDTNRAQYTLVKKLAERFQNICAVGDADQSIYRWRGADIQNILSFERDYPNAKVILLEQNYRSTKRILQAANEVIEHNVNRKPKRIWTENPEGKPILYYEAMNEADEAQFVAGRIREAVERGERRYRDFAVLYRTNAQSRVMEEMLLKANIPYQIVGGLKFYDRKEIKDILAYLRVIANPDDDLSLLRIINVPKRGIGASTIDKLVRYAADHELSLFEALGELEMIGLGAKAAGALAAFRSQLEQWTQLQEYVSVTELVEEVLDKSGYREMLKAERTIEAQSRLENLDEFLSVTKHFENVSDDKSLIAFLTDLALISDLDELDGTEQAAEGDAVMLMTLHAAKGLEFPVVFLIGMEEGIFPHNRSLEDDDEMEEERRLAYVGITRAEEELVLTSAQMRTLFGNIQMDPPSRFLNEIPAHLLETASRRQAGASRPAVSRPQASGAVGSWKVGDRANHRKWGIGTVVSVRGGGDDQELDIAFPSPIGIKRLLAKFAPIEKV
chain 2: MNQQDKEWKEEQSRIDEVLKELEKKERFLETSAGGLKHDIIGLRKSFWEDVKVNFDDAHEAIETMASIKQQAELLSDREHNHRRMDQQLKRIHQLKKSPYFGRIDFIENGEEQAERIYIGLASCLDEKEEHFLIYDWRAPISSLYYNYSPGKAEYEVPGETIEGEMVLKRQFMIKNGTLKAMFNTDMTIGDEMLQEVLSHHSDTQMKNIVSTIQKEQNQIIRNEKSKILIVQGAAGSGKTSAALQRVAYLLYRHRGVIDAGQIVLFSPNFLFNSYVSSVLPELGEENMEQATFQEYIEHRLGRKFKCESPFDQLEYCLTETKGGDFPTRLAGITWKAGLSFQQFINEYVTRLSSEGMIFKNIIFRGQKLITKEQIQSYFYSLDQNHSIPNRMEQTAKWLLSELNKLEKKERRKDWVVHEAELLDKEDYLDVYKKLQERKRFSESTFNDYQREQQLLAAIIVKKAFKPLKQAVRLLAFLDVTQLYLQLFSGWGGKFQHEKMDAIGELTRSAFTDNKLLYEDAAPFLYMQDLIEGRKKNTKIKHLFIDEAQDYSPFQMAYMRSIFPAASMTVLGDINQSIYAHTINGDQRMDACFEDEPAEYVRLKRTYRSTRQIVEFTKAMLQDGADIEPFNRSGEMPLVVKTEGHESLCQKLAQEIGRLKKKGHETIAVICKTAHQCIQAHAHMSEYTDVRLIHKENQPFQKGVCVIPVYLAKGIEFDAVLVYDASEEHYHTEHDRRLLYTACTRAMHMLAVFYTGEASPFVTAVPPHLYQIAE

Variants of B1 are the subject of this experiment. Kind of experiment: pulldown quantified by mass spectrometry. As to conditions: with YvgS/HelD (SF1 helicase), parent: 97, read off a plot.
As for chain 1 L714A, the screen value is 3.5.
The same measure for chain 1 K712A: 9.5.

The record behind these values is article PMC5397179.
